Experimental data taken from article PMC4014126 (2014).

B1: Myc-tagged mouse IL-17RA [mouse] / NF-κB activator 1 (Act1) [mouse (endogenous in MEFs)] (parent complex)
chain 1: SPRLLDFPAPVCAQEGLSCRVKNSTCLDDSWIHPKNLTPSSPKNIYINLSVSSTQHGELVPVLHVEWTLQTDASILYLEGAELSVLQLNTNERLCVKFQFLSMLQHHRKRWRFSFSHFVVDPGQEYEVTVHHLPKPIPDGDPNHKSKIIFVPDCEDSKMKMTTSCVSSGSLWDPNITVETLDTQHLRVDFTLWNESTPYQVLLESFSDSENHSCFDVVKQIFAPRQEEFHQRANVTFTLSKFHWCCHHHVQVQPFFSSCLNDCLRHAVTVPCPVISNTTVPKPVADYIPLWVYGLITLIAILLVGSVIVLIICMTWRLSGADQEKHGDDSKINGILPVADLTPPPLRPRKVWIVYSADHPLYVEVVLKFAQFLITACGTEVALDLLEEQVISEVGVMTWVSRQKQEMVESNSKIIILCSRGTQAKWKAILGWAEPAVQLRCDHWKPAGDLFTAAMNMILPDFKRPACFGTYVVCYFSGICSERDVPDLFNITSRYPLMDRFEEVYFRIQDLEMFEPGRMHHVRELTGDNYLQSPSGRQLKEAVLRFQEWQTQCPDWFERENLCLADGQDLPSLDEEVFEDPLLPPGGGIVKQQPLVRELPSDGCLVVDVCVSEEESRMAKLDPQLWPQRELVAHTLQSMVLPAEQVPAAHVVEPLHLPDGSGAAAQLPMTEDSEACPLLGVQRNSILCLPVDSDDLPLCSTPMMSPDHLQGDAREQLESLMLSVLQQSLSGQPLESWPRPEVVLEGCTPSEEEQRQSVQSDQGYISRSSPQPPEWLTEEEELELGEPVESLSPEELRSLRKLQRQLFFWELEKNPGWNSLEPRRPTPEEQNPS
chain 2: MNRSIPVEVDESEPFPSQLLKPIPEYSPEEELEPPAPNTRNMAPSSLSVLQCPPLKLANHQPVSQQVTCLRAKVLEEGEASFFRRHPELGKDISSCSSGASEPESELGALPPEHRFTLTEKRNRWLGSQLSAASPDTGHESDKSDPSLPNALADSFSGGQEMMPRPRPRPGPHRHRAAPDVPTIDTGYDSQPQDVLGIRQLERPLPLTSSCYLQDLPGPLRSRELPPQFELERYPMNAQLLPPHPSPQAPWNCQYYCPGGPYHHQVPHGHGYPPAAAYQQVLQPALPGQVLPGARARGPRPVQKVILNDSSPQDQEERPAQRDFSFPRLPRDQLYRPPSNGVEAPEESLDLPAELRPHGPQAPSLAAVPRPPSNPLARGTLRTSNLPEELRKVFITYSMDTAMEVVKFVNFLLVNGFQTAIDIFEDRIRGIDIIKWMERYLRDKTVMIIVAISPKYKQDVEGAESQLDEDEHGLHTKYIHRMMQIEFISQGSMNFRFIPVLFPNAKKEHVPTWLQNTHVYSWPKNKKNILLRLLREEEYVAPPRGPLPTLQVVPL

Variants of: B1
Experiment: co-immunoprecipitation (anti-Myc IP, Western blot, ImageJ densitometry); IL-17RA-deficient MEFs reconstituted by retroviral infection; treated with IL-17 for 10 min; parent: 100

| percent of parent | Variant |
| --- | --- |
| 98 | chain 1 V396A, chain 1 M397A |
| 107 | chain 1 E388A, chain 1 Q389A, chain 1 E393A |
| 107 | chain 1 R420A, chain 1 Q423A, chain 1 K427A |
| 102 | chain 1 I429A, chain 1 L430A |
